What was measured:
DB-JBP1 D525A = DB-JBP1 D525A (Leishmania tarentolae, UniProt Q9U6M1 382-561, D525A); assay: SPR
DB-JBP1 D536A = DB-JBP1 D536A (Leishmania tarentolae, UniProt Q9U6M1 382-561, D536A); assay: SPR
JBP1 D525A = JBP1 D525A (UniProt Q9U6M1 1-827, D525A); assay: fluorescence anisotropy
DB-JBP1 K436A = DB-JBP1 K436A (Leishmania tarentolae, UniProt Q9U6M1 382-561, K436A); assay: fluorescence anisotropy
DB-JBP1 K535A = DB-JBP1 K535A (Leishmania tarentolae, UniProt Q9U6M1 382-561, K535A); assay: fluorescence anisotropy

B1: VSG J-DNA 14-mer, biotin (dsDNA)
DNA 1: GGCAGCTGCAACAA
DNA 2: TTGTTGCAGCTGCC
modifications: base J replaces T7 of strand 1
DB-JBP1 D525A
  binding result: no binding
DB-JBP1 D536A
  binding result: binds

B2: VSG T-DNA 14-mer (dsDNA)
DNA 1: GGCAGCTGCAACAA
DNA 2: TTGTTGCAGCTGCC
JBP1 D525A
  Kd: 11.7 µM

B3: VSG J-DNA 14-mer (dsDNA)
DNA 1: GGCAGCTGCAACAA
DNA 2: TTGTTGCAGCTGCC
modifications: base J (beta-D-glucosyl-hydroxymethyluracil) replaces T7 of strand 1
DB-JBP1 K436A
  binding result: binds
DB-JBP1 K535A
  binding result: binds

Reference: PMC3141245
